Measurements from patent publication US20120195831A1 (published 2012).

What was measured:
[1] = biological target: T1, human Her3 receptor on cells (T47D, MCF7) (human, UniProt P21860 20-1342); experiment: cell-based or functional assay
[2] = biological target: T1, human Her3 receptor on cells (T47D, …); experiment: cell-based or functional assay; remark: listed apart in the source
[3] = biological target: T1, human Her3 receptor on cells (T47D, …); experiment: cell-based or functional assay; remark: listed apart in the source
[4] = biological target: T1, human Her3 receptor on cells (T47D, …); experiment: cell-based or functional assay; remark: listed apart in the source
[5] = biological target: T2, EGFR on CHO cells (CHO-EGFR) (UniProt P00533 25-1210, limits assumed); experiment: FACS on CHO-EGFR cells, purified IgG, R-PE anti-mouse IgG
T2 construct: whole, on cells
Procedure: (§1) CHO-Her2, CHO-Her4, CHO-EGFR cells were harvested and resuspended in PBS, 2% FBS at a concentration of approximately 1×10⁶/ml. Cells were stained with purified IgGs at 4° C. for 40 min. Cells were washed with 4 mL PBS, 2% FBS, then centrifuged at 1200 rpm for 10 minutes. Supernatant was removed. Cells were stained with R-PE conjugated anti-mouse IgG at 4° C. for 30 min. Cells were washed with 4 mL PBS, 2% FBS, then centrifuged at 1200 rpm for 10 minutes. Supernatant was removed and cell pellets were fixed in 1% formaldehyde. Cells were analyzed on a FACS Calibur (BD Biosciences) by collecting 20,000 events from gate 1.

[6] = biological target: T3, Her2 on CHO cells (CHO-Her2) (UniProt P04626 23-1255, limits assumed); experiment: FACS on CHO-Her2 cells, purified IgG, R-PE anti-mouse IgG
T3 construct: whole, on cells
Procedure: as §1

[7] = biological target: T4, Her4 on CHO cells (CHO-Her4) (UniProt Q15303 26-1308, limits assumed); experiment: FACS on CHO-Her4 cells, purified IgG, R-PE anti-mouse IgG
T4 construct: whole, on cells
T4 sequence (Q15303 26-1308 limits assumed): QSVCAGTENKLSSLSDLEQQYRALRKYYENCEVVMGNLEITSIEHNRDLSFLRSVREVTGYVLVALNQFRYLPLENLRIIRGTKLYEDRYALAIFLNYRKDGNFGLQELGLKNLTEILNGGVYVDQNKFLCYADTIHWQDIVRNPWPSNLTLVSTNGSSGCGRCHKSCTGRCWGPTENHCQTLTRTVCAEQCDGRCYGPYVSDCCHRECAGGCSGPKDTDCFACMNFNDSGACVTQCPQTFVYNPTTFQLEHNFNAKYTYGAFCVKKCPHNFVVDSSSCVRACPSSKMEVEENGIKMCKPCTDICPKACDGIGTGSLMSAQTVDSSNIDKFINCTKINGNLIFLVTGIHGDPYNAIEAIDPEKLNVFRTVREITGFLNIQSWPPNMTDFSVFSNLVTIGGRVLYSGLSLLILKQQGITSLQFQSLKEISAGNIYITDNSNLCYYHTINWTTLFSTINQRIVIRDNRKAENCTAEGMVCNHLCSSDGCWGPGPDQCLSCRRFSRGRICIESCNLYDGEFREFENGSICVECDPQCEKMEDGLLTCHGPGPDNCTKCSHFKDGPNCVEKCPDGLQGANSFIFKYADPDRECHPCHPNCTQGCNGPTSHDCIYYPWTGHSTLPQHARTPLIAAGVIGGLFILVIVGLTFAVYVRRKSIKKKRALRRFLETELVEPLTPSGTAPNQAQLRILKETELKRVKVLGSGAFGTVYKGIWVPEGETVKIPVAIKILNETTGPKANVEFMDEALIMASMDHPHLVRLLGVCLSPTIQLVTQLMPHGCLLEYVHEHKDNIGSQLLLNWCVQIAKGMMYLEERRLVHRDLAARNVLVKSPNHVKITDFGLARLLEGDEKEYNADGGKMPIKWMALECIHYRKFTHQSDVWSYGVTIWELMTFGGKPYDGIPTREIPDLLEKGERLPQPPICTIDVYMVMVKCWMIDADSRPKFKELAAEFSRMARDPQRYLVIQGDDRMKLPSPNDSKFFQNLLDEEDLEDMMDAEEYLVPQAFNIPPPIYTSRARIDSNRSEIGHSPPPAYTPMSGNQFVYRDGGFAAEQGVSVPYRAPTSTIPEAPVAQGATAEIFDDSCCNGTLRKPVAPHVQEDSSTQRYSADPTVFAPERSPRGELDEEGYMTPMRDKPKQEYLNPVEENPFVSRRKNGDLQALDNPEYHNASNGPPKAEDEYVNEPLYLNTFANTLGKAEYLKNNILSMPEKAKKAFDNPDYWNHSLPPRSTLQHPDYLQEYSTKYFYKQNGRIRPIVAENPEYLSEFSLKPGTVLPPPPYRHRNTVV
Procedure: as §1

[8] = biological target: T5, Recombinant Human Her3 (Her3/ErbB3 extracellular domain) (human, UniProt P21860 20-643); experiment: SPR (BIAcore), Mab captured by anti-IgG Fc on CM5 chip, recombinant human Her3 as analyte, 25 °C
T5 construct: Analyte of the BIAcore assay; also called Her3 ECD; human Her3/ErbB3 extracellular domain
T5 sequence (P21860 20-643 limits assumed): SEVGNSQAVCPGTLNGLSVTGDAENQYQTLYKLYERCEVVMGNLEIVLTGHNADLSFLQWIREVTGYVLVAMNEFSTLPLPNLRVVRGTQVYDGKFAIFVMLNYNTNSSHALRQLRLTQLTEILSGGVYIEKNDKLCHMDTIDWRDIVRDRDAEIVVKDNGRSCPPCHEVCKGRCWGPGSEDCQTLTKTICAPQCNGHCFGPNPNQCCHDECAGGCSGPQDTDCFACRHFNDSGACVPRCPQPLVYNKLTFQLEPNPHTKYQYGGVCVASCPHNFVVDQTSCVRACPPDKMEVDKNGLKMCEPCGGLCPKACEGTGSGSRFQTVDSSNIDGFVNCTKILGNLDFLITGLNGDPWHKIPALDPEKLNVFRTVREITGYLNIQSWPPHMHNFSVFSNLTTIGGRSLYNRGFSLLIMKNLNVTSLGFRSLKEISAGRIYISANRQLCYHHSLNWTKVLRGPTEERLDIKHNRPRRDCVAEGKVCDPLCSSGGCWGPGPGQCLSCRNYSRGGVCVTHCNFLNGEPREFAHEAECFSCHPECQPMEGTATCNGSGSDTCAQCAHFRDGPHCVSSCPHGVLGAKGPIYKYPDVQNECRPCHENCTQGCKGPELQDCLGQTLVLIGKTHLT
Procedure: All experiments were performed at 25° C. at a flow rate of 40 μl/min. To prepare a BIAcore assay, an anti-human IgG-Fc antibody (50 μg/ml each in acetate buffer, pH 5.0) was immobilized onto a carboxymethyl dextran sensorchip (CM5) using amine coupling procedures as described by the manufacturer. 10000 resonance units (RU) of anti-mouse IgG Fc antibodies were linked respectively onto Flowcells (FC) 1 and 2. Purified Mabs to be tested were diluted at a concentration of 5 μg/ml in 0.5% P20, HBS-EP buffer and injected on FC2 to reach 500 to 1000 RU. FC1 was used as the reference cell. Specific signals correspond to the difference of signals obtained on FC2 versus FC1. The analyte (Recombinant Human Her3, apparent molecular weight 97 kDa) was injected during 90 sec at 5 different concentrations (100, 50, 25, 12.5 and 6.25 nM) in 0.5% P20, HBS-EP buffer. These concentrations were prepared from stock solution in 0.5% P20, HBS-EP. The dissociation phase of the analyte was monitored over a 10 minutes period. Running buffer was also injected under the same conditions as a double reference. After each cycle (antibody+Her3 injection), both Flowcells were regenerated by injecting 20 to 45 μl of Glycine-HCl buffer pH 1.5. This regeneration is sufficient to eliminate all Mabs and Mabs/Her3 complexes captured on the sensorchip. Table 1 listed binding KD for Her3 binding monoclonal antibodies.

Her3/Avi/His10 receptor [9] = biological target: T6, Her3/Avi/His10 receptor (Homo sapiens (Human), UniProt P21860 20-643, limits assumed); experiment: AlphaScreen competition; antibody titrated against 10 nM biotinylated NRG-1 beta and 10 nM Her3/Avi/His10; n = 3
T6 construct: Soluble tagged receptor of the AlphaScreen assay; The antibodies are called anti-hHer3 there; not shown: Avi tag; His10 tag (ten histidines by its name)
T6 sequence (P21860 20-643 limits assumed): as above
Procedure: (§2) SDI or Genovac purified anti-hHer3 Mabs were serially diluted two-fold into an assay buffer made from 25 mM Hepes, 100 mM NaCl, 0.5% BSA and 0.05% Tween20 in an opaque/white, half-well area plate (Costar). Mouse IgG1 antibody was used as a negative control (Southern Biotech; cat #010201). Biotinylated NRG-1 beta ligand and Her3/Avi/His₁₀ receptor were added sequentially at 10 nM concentration to the assay plate containing serially diluted antibodies. This mixture of receptor, ligand and the antibodies was incubated at room temperature with gentle shaking for 90 minutes. AlphaScreen Streptavidin Donor beads and His-Nickel chelate Acceptor beads were added into the assay at a final concentration of 20 μg/ml each. The light sensitive beads were handled under chromagreen filtered light. The assay plates were covered with foil and incubated at room temperature with gentle shaking for 1 hour. The plates were read in PE EnVision plate reader equipped with an Alpha module (dedicated laser for excitation and designed to measure the signal above the well). Table 7 listed IC₅₀ values in ligand blocking that were estimated using four parameter curve fitting with concentration titration graphs (FIGS. 7 A&B).

Her3/Avi/His10 receptor [10] = biological target: T6, Her3/Avi/His10 receptor; experiment: AlphaScreen ligand blocking: antibody titrated against 10 nM biotinylated NRG-1 beta and 10 nM Her3/Avi/His10, % signal
Procedure: as §2

T1 sequence (P21860 20-1342 limits assumed, stated change not applied): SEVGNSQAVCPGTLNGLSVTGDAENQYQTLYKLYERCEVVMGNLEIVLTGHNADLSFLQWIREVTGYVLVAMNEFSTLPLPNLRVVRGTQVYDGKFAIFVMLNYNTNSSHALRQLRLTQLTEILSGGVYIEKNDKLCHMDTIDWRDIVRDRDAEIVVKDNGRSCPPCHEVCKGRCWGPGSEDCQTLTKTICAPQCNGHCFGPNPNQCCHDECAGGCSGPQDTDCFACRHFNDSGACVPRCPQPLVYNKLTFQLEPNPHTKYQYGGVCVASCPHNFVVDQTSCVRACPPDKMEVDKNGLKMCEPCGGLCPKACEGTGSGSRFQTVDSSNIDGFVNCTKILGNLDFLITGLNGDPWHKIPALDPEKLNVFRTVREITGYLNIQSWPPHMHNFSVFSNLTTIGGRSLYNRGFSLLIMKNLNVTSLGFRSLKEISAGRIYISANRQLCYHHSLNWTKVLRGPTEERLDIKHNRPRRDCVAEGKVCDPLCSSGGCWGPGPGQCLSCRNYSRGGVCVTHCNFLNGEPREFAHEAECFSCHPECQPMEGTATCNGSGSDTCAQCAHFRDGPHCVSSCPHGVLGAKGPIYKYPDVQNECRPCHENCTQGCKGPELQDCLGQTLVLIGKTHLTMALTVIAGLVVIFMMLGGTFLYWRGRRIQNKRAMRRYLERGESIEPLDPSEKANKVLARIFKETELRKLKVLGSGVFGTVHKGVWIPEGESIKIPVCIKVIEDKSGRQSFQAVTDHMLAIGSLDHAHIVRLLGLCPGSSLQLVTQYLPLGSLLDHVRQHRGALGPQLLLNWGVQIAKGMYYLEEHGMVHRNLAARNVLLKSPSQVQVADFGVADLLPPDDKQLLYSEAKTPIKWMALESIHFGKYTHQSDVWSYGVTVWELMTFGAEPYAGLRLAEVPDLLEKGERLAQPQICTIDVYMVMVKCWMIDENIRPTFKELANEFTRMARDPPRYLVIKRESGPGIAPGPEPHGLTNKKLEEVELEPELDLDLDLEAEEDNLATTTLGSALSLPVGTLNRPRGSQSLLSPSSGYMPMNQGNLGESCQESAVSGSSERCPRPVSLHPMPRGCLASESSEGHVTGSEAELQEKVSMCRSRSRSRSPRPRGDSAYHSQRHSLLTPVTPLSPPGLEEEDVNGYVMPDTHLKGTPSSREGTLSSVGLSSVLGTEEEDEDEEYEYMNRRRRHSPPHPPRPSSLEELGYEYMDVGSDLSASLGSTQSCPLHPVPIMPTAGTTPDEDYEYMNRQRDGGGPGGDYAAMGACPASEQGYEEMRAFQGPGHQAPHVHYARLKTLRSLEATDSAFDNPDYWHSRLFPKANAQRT

| % Receptor Internalization (T47D cells, FACS) [1] | IC50 of inhibition of pHer3 (MCF7 cells stimulated with rhNRG1-β1, ELISA) [2] | IC50 of pAKT inhibition (MCF7 cells stimulated with rhNRG1-β1, ELISA) [3] | IC50 of pERK inhibition (MCF7 cells stimulated with rhNRG1-β1, MSD) [4] | binding result [5] | binding result [6] | binding result [7] | Kd [8] | IC50 (Her3/Avi/His10 receptor [9]) | IC50 (Her3/Avi/His10 receptor [10]) | Binder |
| --- | --- | --- | --- | --- | --- | --- | --- | --- | --- | --- |
| 51% | 0.09 nM | 0.14 nM | 1.72 nM | no binding | no binding | no binding | 3.31 nM | 4.9 nM | 2.92 nM | 588E10 (antibody, V domains shown, Purified mouse IgG from a hybridoma; also called 588E10-HC; 588E10-LC) VH: EVQLQQSGPKLVGPGESVKISCKGSGYTFTDYGMHWVKQSHAKRLEWIGVITIYDGHTNYNQNFKGKAALTVDKSSNTAYLELARMTSEDSAIYYCARGDYDLFWYLDVWGAGTTLTVSS VL: DVVMTQTPLSLTVSLGDQASISCRSSQNIKHSDGNTYLEWYLQKPGQSPKLLIYKVSNRFSGVPDRFSGSGSGTDFTLKISRVEAEDLGVYFCFQGSHVPLTFGAGTKLELKR |
| 52% | 0.07 nM |  | 1.82 nM | no binding | no binding | no binding | 3.04 nM | 2.3 nM | 1.44 nM | 588E14 (antibody, V domains shown, Purified mouse IgG from a hybridoma; also called 588E14-HC; 588E14-LC) VH: EVQLQQSGPELVGPGESVKISCKGSGYAFTDYGMHWVKQSHAKRLEWIGVITIYDGHTNYNQNFKGKAALTVDKSSNTAYLELARMTSEDSAIYYCARGDYDLFWYLDVWGAGTSVTVSS VL: DIVMTQTPLSLTVSLGDQASISCRSSQNIKHSDGNTYLEWYLQKPGQSPKLLIYKVSNRFSGVPDRFSGSGSGTDFTLKISRVEAEDLGVYFCFQGSHVPLTFGAGTKLELKR |
| 53% | 0.09 nM | 0.09 nM | 1.44 nM | no binding | no binding | no binding | 2.78 nM | 3.6 nM | 2.08 nM | 588E22 (antibody, V domains shown, Purified mouse IgG from a hybridoma; also called 588E22-HC; 588E22-LC) VH: DVQLQESGPELVGPGESVKISCKGSGYTFTDYGMHWVKQSHAKRLEWIGVITIYDGHTNYNQNFKGKAALTVDKSSNTAYPELARMTSEDSAIYYCARGDYDLFWYLDVWGAGTTVTVSS VL: DVVMTQTPLSLTVSLGDQASISCRSSQNIKHSDGNTYLEWYLQKPGQSPKLLIYKVSNRFSGVPDRFSGSGSGTDFTLKISRVEAEDLGVYFCFQGSHVPLTFGAGTKLELKR |
| 59% | 0.66 nM | 2.05 nM | 4.91 nM | no binding | no binding | no binding | 3.2 nM | 4.1 nM | 1.17 nM | 588F41 (antibody, V domains shown, Purified mouse IgG from a hybridoma; also called 588F41-HC; 588F41-LC) VH: EVQLQQSGPELVKPGASVKMSCKASGYTFTSYVMHWVKQKPGQGLEWLGYINPYNDGTKYNEKFKGMATLTSDKSSSTAYMELISLTSEDSAVYYCAREASYGNPFAYWGQGTLVTVSA VL: DIVMTQSPASLSASVGETVTITCRTSENIYSYLAWFQQKQGNSPQLLVYNTKTLAEGVPSRFSGSGSGTQFSLKINSLQPEDFGNYYCQHHYDTPWTFGGGTKLEIKR |
| 57% | 1.04 nM | 1.36 nM | 1.8 nM | no binding | no binding | no binding | 3.8 nM | 4.6 nM | 3.03 nM | 588F42 (antibody, V domains shown, Purified mouse IgG from a hybridoma; also called 588F42-HC; 588F42-LC) VH: EVQLQQSGPELVKPGASVKMSCKASGYTFTSYVMHWVKQKPGQGLEWLGYINPYNDGTKYNEKFKGKATLTSDKSSSTAYMELISLTSEDSAVYYCAREASYGNPFAYWGQGTLVTVSA VL: DIVMTQSPASLSASVGETVTITCRTSENIYSYLAWFQQKQGNSPQLLVYNTKTLAEGVPSRFSGSGSGTQFSLKINSLQPEDFGNYYCQHHYDTPWTFGGGTKLEIK |
| 41% | 6.99 nM | 9.47 nM | 4.62 nM | no binding | no binding | no binding | 2.4 nM | 2.7 nM | 2.9 nM | PO-1C9-C4 (antibody, V domains shown, Purified mouse IgG from a hybridoma; also called PO-1C9-C4-HC; PO-1C9-C4-LC) VH: QVQLQQPGSELVRPGASVKLSCKASGYTFTIFWIHWVKQRPGQGLEWIGNIYPGSGGTNYDEKFKSKATLTVDTFSSTAYMQLSSLTSEDSAVYYCTRWGTGKDYWGQGTTLTVSS VL: DIVLTQSPAIMSASPGEKVTMTCRARSSVSSSYLHWYQQKPGSSPKLWIYSTSNLALGVPARFSGSGSGTSYSLTISSVEAEDAATYYCQQYDSSPFTFGTGTKLEIKR |
|  |  |  |  | no binding | no binding | no binding |  |  |  | 588F7 (antibody, V domains shown, Purified mouse IgG from a hybridoma; also called 588F7-HC; 588F7-LC) VH: QVQLQQPGSVLVRPGASVKLSCKASGYTFTNSWILWAKRRPGQGLEWIGEIHPNSGNTNYNEKFKGQATLTVDTSSTTAYVDLSRLTSEDSAVYYCARYEGHWGQGTLVTVSA VL: not shown |
